“And” between values parts separate entries of the source, which are not always exact repeats. Identical values can stand only once.
What was measured:
Liraglutide [1] = experiment: AF4-MALS (asymmetrical flow field-flow fractionation with UV, fluorescence, dRI and MALS detection); thermally stressed, aggregated API (APIaggr), 3 mg/mL in formulation, 60 uL injected; formulation buffer as mobile phase
Liraglutide [2] = experiment: SEC-MALS; HPLC-UV-dRI-MALS, Shodex Protein KW-802.5; mobile phase 1 g/L L-Arginine: Acetonitrile: acetic acid, 35:50:15 (results say 30% acetonitrile), isocratic 0.5 mL/min; Liraglutide FDF Lot #33387-18 and Saxenda Lot #JP54138, 6 mg/mL
Liraglutide [3] = experiment: AF4-MALS (asymmetrical flow field-flow fractionation with UV, fluorescence, dRI and MALS detection); Liraglutide 6 mg/mL (API resuspended in water or formulation, FDF, Victoza, Saxenda), 30 uL injected; formulation buffer (disodium phosphate dihydrate, propylene glycol, phenol, water) as mobile phase; PES membrane 1 kDa cutoff; molar mass by MALS with dRI; n = 3
Liraglutide [4] = experiment: AF4-MALS (asymmetrical flow field-flow fractionation with UV, fluorescence, dRI and MALS detection); thermally stressed, aggregated API (APIaggr), 3 mg/mL in formulation, 60 uL injected; formulation buffer as mobile phase; remark: listed apart in the source

stoichiometry N (Liraglutide [1]): > 20 units
relative abundance of monomer (Liraglutide [2]): > 99.5%
stoichiometry N (Liraglutide [2]): 2 and 4
stoichiometry N (Liraglutide [3]): 5.2 units
stoichiometry N (Liraglutide [4]): 20 units
Substance: Liraglutide (peptide)
